Data set [1] deals with T1, human alpha-thrombin (Homo sapiens, UniProt P00734;P00734 328-363;364-622). Put plainly: competition; displaces 32P-CTBA4T (500 pM, thrombin 50 pM) at high concentration; exosite I; EMSA: 1x binding buffer (PBSMT pH 7.2: 137 mM NaCl, 2.68 mM KCl, 8.1 mM Na2HPO4, 1.76 mM KH2PO4, 1 mM MgCl2, 0.025% Tween-20), <50 pM 32P-DNA, 30 min; gel 10% n. (Mobility shift assays separate free from complexed probe on a gel.)

The target of data set [2] is T1, human alpha-thrombin. Put plainly: EMSA; EMSA: 1x binding buffer (PBSMT pH 7.2: 137 mM NaCl, 2.68 mM KCl, 8.1 mM Na2HPO4, 1.76 mM KH2PO4, 1 mM MgCl2, 0.025% Tween-20), <50 pM 32P-DNA, 30 min; gel 10% n.
Data set [3] deals with alpha-thrombin (light; heavy chain) (Homo sapiens (Human), UniProt P00734;P00734 328-363;364-622, N-glycosylated (plasma); interchain disulfide). Put plainly: EMSA; PBS pH 7.2, 1 mM MgCl2, 0.025% Tween-20; DNA <50 pM. The settings on record: copies: 1;1; label: 32P.

For GGTTGGTGTGGTTGG (structured_DNA) [TBA15], the binding result with human alpha-thrombin [1] is listed as “binds”.

B1: CTBA4T (structured_DNA)
DNA: ATCTCGACTAGTCATAGGGGGCGCGAACATACGCGGTTGGTGTGGTTGGCTGACAATACTCGT
modifications: circular (5'-3' ligated)
B1 gave a dissociation constant Kd with human alpha-thrombin [2] of 0.023 nM.

B2: CTBA4T (structured_DNA)
DNA: B1 DNA
modifications: circular (3'-5' ligated)
In data set [3], B2 returned a Kd of 0.023 nM. This counts as picomolar.

B3: CTBA4T-B1 (structured_DNA)
DNA: ATCTCGAGTCATAGGGGGCGCGAACATACGCGGTTGGTGTGGTTGGCTGACTCGT
modifications: circular (5'-3' ligated)
In turn, B3 yielded a Kd with human alpha-thrombin [2] of 0.019 nM.

What is called Kd is the constant that tells how readily two partners part at equilibrium. A higher Kd goes with weaker binding.

These data come from PMC7641760, “Evolution of a highly functional circular DNA aptamer in serum”.
